Measured values as given in article PMC8233153, “Peters plus syndrome mutations affect the function and stability of human β1,3-glucosyltransferase” (The Journal of Biological Chemistry, 2021).
Residue numbers refer to the chain shown, from its start. In names and notes the source's numbering stands.

B1: B3GLCTΔREEL (human B3GLCT without REEL motif) (Homo sapiens) (protein)
chain: SEDTKKEVKQSQDLEKSGISRKNDIDLKGIVFVIQSQSNSFHAKRAEQLKKSILKQAADLTQELPSVLLLHQLAKQEGAWTILPLLPHFSVTYSRNSSWIFFCEEETRIQIPKLLETLRRYDPSKEWFLGKALHDEEATIIHHYAFSENPTVFKYPDFAAGWALSIPLVNKLTKRLKSESLKSDFTIDLKHEIALYIWDKGGGPPLTPVPEFCTNDVDFYCATTFHSFLPLCRKPVKKKDIFVAVKTCKKFHGDRIPIVKQTWESQASLIEYYSDYTENSIPTVDLGIPNTDRGHCGKTFAILERFLNRSQDKTAWLVIVDDDTLISISRLQHLLSCYDSGEPVFLGERYGYGLGTGGYSYITGGGGMVFSREAVRRLLASKCRCYSNDAPDDMVLGMCFSGLGIPVTHSPLFHQARPVDYPKDYLSHQVPISFHKHWNIDPVKVYFTWLAPSDEDKARQETQKGF
notes: secreted from pSecTag2/HygroC, C-terminal Myc-His6 tag kept; native signal peptide replaced by vector signal; C-terminal ER-retention motif REEL (last 4 of 498 residues) removed; forward primer starts near SEDTKKEV; HEK293T medium, Ni-NTA
B2: B3GLCTΔREEL (human B3GLCT without REEL motif) (Homo sapiens; Q457R) (protein)
chain: B1 chain with Q429R
notes: as for B1
B3: B3GLCTΔREEL (human B3GLCT without REEL motif) (Homo sapiens; T179S) (protein)
chain: B1 chain with T151S
notes: as for B1
B4: B3GLCTΔREEL (human B3GLCT without REEL motif) (Homo sapiens; V245M) (protein)
chain: B1 chain with V217M
notes: as for B1
B5: B3GLCTΔREEL (human B3GLCT without REEL motif) (Homo sapiens; R337H) (protein)
chain: B1 chain with R309H
notes: as for B1

Each molecule was assayed against O-fucosylated TSR3 from human thrombospondin-1 (Fuc-O-TSR3) (human) (assay: not given). Details: not given.
“human B3GLCTΔREEL T179S (PTRPLS-like mutant) (from UniProt Q6Y288 1-498) (enzyme)” was tested, and the K (half) (μM) for the acceptor substrate Fuc-O-TSR3 in the in vitro glucosyltransferase assay (UDP-Glo; allosteric sigmoidal fit) was 8.04 µM.
Molecule “human B3GLCTΔREEL Q457R (PTRPLS-like mutant) (from UniProt Q6Y288 1-498) (enzyme)” has a K (half) (μM) for the acceptor substrate Fuc-O-TSR3 in the in vitro glucosyltransferase assay (UDP-Glo; allosteric sigmoidal fit) of 5.73 µM.
“human B3GLCTΔREEL V245M (PTRPLS-like mutant) (from UniProt Q6Y288 1-498) (enzyme)” showed a K (half) (μM) for the acceptor substrate Fuc-O-TSR3 in the in vitro glucosyltransferase assay (UDP-Glo; allosteric sigmoidal fit) of 6.64 µM.
“human B3GLCTΔREEL R337H (PTRPLS-like mutant) (from UniProt Q6Y288 1-498) (enzyme)” was tested, and the K (half) (μM) for the acceptor substrate Fuc-O-TSR3 in the in vitro glucosyltransferase assay (UDP-Glo; allosteric sigmoidal fit) was 6.65 µM.
Molecule “human B3GLCT with the REEL motif removed (B3GLCTΔREEL), wild type (from UniProt Q6Y288 1-498) (enzyme)” has a K (half) (μM) for the acceptor substrate Fuc-O-TSR3 in the in vitro glucosyltransferase assay (UDP-Glo; allosteric sigmoidal fit) of 8.9 µM.

The molecules below were run on O=c1ccn([C@@H]2O[C@H](CO[P@@](=O)(O)O[P@@](=O)(O)O[C@H]3O[C@H](CO)[C@@H](O)[C@H](O)[C@H]3O)[C@@H](O)[C@H]2O)c(=O)[nH]1 (assay: UDP-Glo glycosyltransferase assay (UDP release, luminescence), Michaelis-Menten fit). Details: donor varied, acceptor Fuc-O-TSR3 (human thrombospondin-1 TSR3), 50 mM Tris/HCl pH 7.5, 37 °C, 20 min, no metal added.
Format: biochemical
Description: UDP-Glo glycosyltransferase assay (UDP release, luminescence), Michaelis-Menten fit on B3GLCTΔREEL (human B3GLCT without REEL motif)
B1 showed a Km of 25.47 µM, a Vmax of 0.0432 µmol/min/mg and a kcat of 0.0403 s⁻¹.
With B2 the Km was 17.39 µM, the Vmax was 0.0236 µmol/min/mg and the kcat was 0.022 s⁻¹.
Work on B3 yielded a Km of 20.94 µM, a Vmax of 0.0324 µmol/min/mg and a kcat of 0.0303 s⁻¹.
Molecule B4 has a Km of 18.74 µM, a Vmax of 0.0246 µmol/min/mg and a kcat of 0.023 s⁻¹.
Work on B5 yielded a Km of 21.89 µM, a Vmax of 0.0277 µmol/min/mg and a kcat of 0.0258 s⁻¹.
